Source: IntAct's records for PubMed 9162036

Target: ap2m1_rat Ap2m1 (UniProt P84092)
Sequence (P84092 whole entry): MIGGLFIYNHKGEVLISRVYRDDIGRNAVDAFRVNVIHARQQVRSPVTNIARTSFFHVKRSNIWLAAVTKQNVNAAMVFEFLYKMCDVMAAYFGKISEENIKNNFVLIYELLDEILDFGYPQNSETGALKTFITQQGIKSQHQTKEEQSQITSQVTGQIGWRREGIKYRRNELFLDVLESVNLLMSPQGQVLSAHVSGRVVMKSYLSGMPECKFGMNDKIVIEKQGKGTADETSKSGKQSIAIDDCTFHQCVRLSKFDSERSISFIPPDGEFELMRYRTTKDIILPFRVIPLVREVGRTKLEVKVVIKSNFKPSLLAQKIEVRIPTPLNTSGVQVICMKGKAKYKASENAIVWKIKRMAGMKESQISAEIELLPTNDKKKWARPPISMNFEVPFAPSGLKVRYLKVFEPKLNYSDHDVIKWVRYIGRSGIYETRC

Trans-Golgi network integral membrane protein TGN38 (Rattus norvegicus (Rat)), P19814 S348A, sequence (P19814 whole entry S348A): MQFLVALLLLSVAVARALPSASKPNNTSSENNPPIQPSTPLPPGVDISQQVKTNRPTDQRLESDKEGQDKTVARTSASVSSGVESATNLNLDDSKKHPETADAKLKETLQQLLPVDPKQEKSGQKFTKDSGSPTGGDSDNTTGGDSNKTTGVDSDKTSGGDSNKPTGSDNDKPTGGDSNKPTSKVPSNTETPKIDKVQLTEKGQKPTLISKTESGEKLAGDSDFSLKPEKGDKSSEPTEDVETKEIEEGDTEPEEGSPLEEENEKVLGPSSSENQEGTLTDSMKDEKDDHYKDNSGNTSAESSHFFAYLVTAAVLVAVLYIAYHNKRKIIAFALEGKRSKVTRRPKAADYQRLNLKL
Trans-Golgi network integral membrane protein TGN38 (Rattus norvegicus (Rat)), P19814 Y350A, sequence (P19814 whole entry Y350A): as the sequence (P19814 whole entry S348A) above, with A348S, Y350A counted along it

Substance: Trans-Golgi network integral membrane protein TGN38 (Rattus norvegicus (Rat)), P19814 S348A
- effect of a mutation on the interaction: decreasing interaction

Substance: Trans-Golgi network integral membrane protein TGN38 (Rattus norvegicus (Rat)), P19814 Y350A
- effect of a mutation on the interaction: decreasing interaction
